The source of these data is patent EP4582447A1 (Quaerite Biopharm Research (Beijing) Co., Ltd., dated 2025).

Read-outs that look alike come from different tables or passages of the source. Bounds are passed on as bounds.

Usually EC50 stands for the midpoint of the concentration-response curve. Read a low EC50 as greater potency. Usually IC50 stands for the concentration at which inhibition is half-maximal. The low end stands for higher potency, the high end for lower potency. The Kd is the constant that tells how readily two partners part at equilibrium. Lower therefore signals a tighter complex. Broadly, the koff is a measure of how fast the partners let go of each other. As a reminder, the kon is the second-order rate constant of association. A low value points to slow association.

The target in experiment [1] is T1, Human VEGFA165 (human, UniProt P15692-4 27-191).
T1 construct: treated as the same molecule; also called antigen VEGFA
The experiment can be described thus: ELISA, VEGFA coated 0.3 µg/mL, anti-His detection. (In general: An ELISA detects its analyte on a solid surface through an enzyme-linked reagent.)

Experiment [2] deals with T1, Human VEGFA165. The experiment can be described thus: competition ELISA on coated VEGFA, competitor VEGFR2-ECD-Fc 2 nM.
Experiment [3] deals with T1, Human VEGFA165. The experiment can be described thus: SPR, VEGFA165 on CM5. (In general: SPR reads the build-up and loss of mass on a sensor chip optically.)
The target in experiment [4] is T1, Human VEGFA165. Put plainly: ELISA, VEGFA coated 0.3 µg/mL, anti-His detection. This is another data set of the same source.
The target in experiment [5] is T1, Human VEGFA165. The experiment can be described thus: phage ELISA, VEGFA coated 0.5 µg/mL, anti-M13(HRP).
Experiment [6] addresses 3% milk powder (negative control). The experiment can be described thus: phage ELISA, 3% milk powder coated (negative control), anti-M13(HRP).
Experiment [7] addresses T1, Human VEGFA165. Put plainly: competition ELISA on coated VEGFA, competitor VEGFR2-ECD-Fc 1 nM.
In experiment [8] the target is T1, Human VEGFA165. The experiment can be described thus: SPR Biacore 8K, VEGFA165 amine-coupled on CM5, nanobody as analyte, 1:1 model.
Experiment [9] addresses T1, Human VEGFA165. Put plainly: phage ELISA, VEGFA coated 0.5 µg/mL, anti-M13(HRP).

T1 sequence (P15692 other isoform, or with tags, fused parts or gaps limits assumed): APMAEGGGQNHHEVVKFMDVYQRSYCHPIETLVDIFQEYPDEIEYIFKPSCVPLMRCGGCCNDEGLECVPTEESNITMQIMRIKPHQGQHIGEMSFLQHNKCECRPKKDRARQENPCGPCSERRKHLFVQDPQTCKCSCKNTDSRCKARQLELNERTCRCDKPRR

B1: V15-2m (VHH)
VHH: EVQLVESGGGLVQPGGSLRLSCAASGRTFASYTMGWFRQAPGKEREFVVAISKGGYKYDSVSLEARFTISRDNSKNTVYLQMNSLRPEDTAVYYCAGTRAYGSSRLRLAETYEYWGQGTLVTVSS
notes: Humanized V15
B1 came in with an EC50 in the experiment with Human VEGFA165 [1] of 2.04 nM. Also, in the experiment with Human VEGFA165 [2], the IC50 worked out at 31.7 nM and the “Maximum inhibition rate (%)” value worked out at 84.8%.

B2: V15-4m (VHH)
VHH: EVQLVESGGGLVQPGGSLRLSCAASGRTFASYTMGWFRQAPGKEREFVVAISKGGYKYDSVSLEARFTISRDNAKNTVYLQMNSLRPEDTAVYYCAGTRAYGSSRLRLAETYEYWGQGTLVTVSS
notes: Humanized V15
In turn, B2 returned an EC50 with Human VEGFA165 [1] of 1.42 nM. In addition, in the experiment with Human VEGFA165 [2], the IC50 is 26 nM and the “Maximum inhibition rate (%)” value came out at 87.2%.

B3: V40 (VHH)
VHH: QLQLVESGGGSVQPGGSLRLSCEVSGRTFTSYTMGWFRQAPGKEREFVVAISKGGYKYNAVSLEARFTISKDNTKNTVYLQMNSLKPEDTAVYYCAGTRAYGSSRLRLAKTYEYWGQGTQVTVSS
notes: Purified with C-terminal GGGGS-6×His
Take B3: the “fold difference of KD from the positive control BI-VEGF ab” value with Human VEGFA165 [3] was < 3 fold. For the same molecule, in the experiment with Human VEGFA165 [4], the EC50 was found to be 0.84 nM. In the experiment with Human VEGFA165 [1], this molecule displayed an EC50 of 2.03 nM. Moreover, the OD450 in the experiment with Human VEGFA165 [5] worked out at 3.11 OD450. Moreover, in experiment [6], the OD450 is 0.0362 OD450. Further, in the experiment with Human VEGFA165 [7], the IC50 was determined as 7.48 nM and the “Maximum inhibition rate (%)” value was 92.2%. In the experiment with Human VEGFA165 [8], this molecule came in with a Kd of 0.305 nM, a koff of 0.000108 s⁻¹ and a kon of 353000 M⁻¹ s⁻¹.

B4: V19 (VHH)
VHH: QLQLVESGGGSVQPGGSLRLSCEVSGRTFSSYTMGWFRQAPGKEREFVVAISKGGYKYNSVSLEARFTISKDNTKNTVYLQMNSLKPEDTAVYYCAATRAYGSSRLKLANTYEYWGQGTQVTVSS
Regarding B4, the OD450 in the experiment with Human VEGFA165 [9] was 2.47 OD450; in [6], 0.0273 OD450.

B5: V25 (VHH)
VHH: QLQLVESGGGSVQPGGSLRLSCEVSGRTFTSYTMGWFRRAPGKEREFVVAISKGGYKYDSVSLEARFTISKDNTKNTVYLQMNSLKPEDTAVYYCAGTRAYGSSRLKLAKTYEYWGQGTQVTVSS
Turning to B5, the OD450 is 1.29 OD450 with Human VEGFA165 [9] and 0.0354 OD450 in [6].

B6: V18 (VHH)
VHH: QLQLVESGGGSVQPGGSLRLSCEVSGRTFSSYTMGWFRQAPGKEREFVVAISKGGYKYNSVSLEARFTISKDNTKNTVYLQMNSLKPEDTAVYYCAGTRAYGSSRLRLADTYEYWGQGTQVTVSS
As to B6, the values for the OD450 (in the experiment with Human VEGFA165 [9]; in [6]) were 2.94 OD450 and 0.0134 OD450, respectively.

B7: V6 (VHH)
VHH: QLQLVESGGGSVQPGGSLRLSCEVSGRTFSSYTMGWFRQAPGKEREFVVAISKGGYKYDTVSLEARFTISKDNTKNTVYLQMNSLKPEDTAVYYCAGTRAYGSSRLKLADTYEYWGQGTQVTVSS
As to B7, the OD450 in the experiment with Human VEGFA165 [9] was 1.36 OD450; in experiment [6], 0.0473 OD450.

B8: V22 (VHH)
VHH: QLQLVESGGGSVQPGGSLRLSCEVSGRTFSSYTMGWFRQAPGKEREFVVAISKGGYKYDSVSLEARFTISKDNTKNTVYLQMNSLKPEDTAVYYCAATRAYGSSRLKLADTYEYWGQGTQVTVSS
For the molecule B8, the OD450 is 1.64 OD450 with Human VEGFA165 [9] and 0.0353 OD450 in experiment [6].

B9: V8 (VHH)
VHH: QLQLVESGGGSVQPGGSLRLSCEVSGRTFSSYTMGWFRQAPGKEREFVVAISKGGYKYNTVSLEARFTISKDNTKNTVYLQMNSLKPEDTAVYYCAGTRAYGSSRLKLAETYEYWGQGTQVTVSS
On to B9, for which the results for the OD450 (in the experiment with Human VEGFA165 [9]; in experiment [6]) were 0.924 OD450 and 0.0236 OD450, respectively.
